Patent US20050112690A1

Biological target: extra-domain B (ED-B) of fibronectin, as present in arteriosclerotic plaque of aorta specimens of WHHL rabbits (rabbit (WHHL rabbit aorta tissue)) (UniProt Q28749)
Assay: in vitro perfusion (Ussing chamber) of WHHL rabbit aorta specimens with radiolabeled scFv, 20 min at room temperature, gamma counting

Sequence of UniProt Q28749 (Q28749 1221-1309 limits assumed): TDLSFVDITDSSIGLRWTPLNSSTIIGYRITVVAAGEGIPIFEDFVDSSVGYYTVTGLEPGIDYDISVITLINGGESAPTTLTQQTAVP

rating factor (bound amount on arteriosclerotic vs non-arteriosclerotic aorta sections): 2.8
Substance: 125I-labeled L19 derivative ZK212667 (L19) (scFv)
